Article PMC11609306, “Phosphorylation determines the glucose metabolism reprogramming and tumor-promoting activity of sine oculis homeobox 1” (Signal Transduction and Targeted Therapy, 2024)

Experiments:
[1] = biological target: T1, His-tagged ERK2 (UniProt P28482 1-360); assay: pull-down; GST pull-down: purified GST-SIX1 fusion protein with purified His-tagged ERK1/2; details: both partners purified
T1 construct: Extracellular signal-regulated protein kinase 2 (ERK2); Built in pET28a; also called His-tagged ERK1/2; source: E. coli BL21, purified (His-Sepharose beads)

[2] = biological target: T2, His-tagged ERK1 (UniProt P27361 1-379); assay: as above; details: both partners purified
T2 construct: Extracellular signal-regulated protein kinase 1 (ERK1); Built in pET28a; also called His-tagged ERK1/2; source: E. coli BL21, purified (His-Sepharose beads)
T2 sequence (P27361 whole entry): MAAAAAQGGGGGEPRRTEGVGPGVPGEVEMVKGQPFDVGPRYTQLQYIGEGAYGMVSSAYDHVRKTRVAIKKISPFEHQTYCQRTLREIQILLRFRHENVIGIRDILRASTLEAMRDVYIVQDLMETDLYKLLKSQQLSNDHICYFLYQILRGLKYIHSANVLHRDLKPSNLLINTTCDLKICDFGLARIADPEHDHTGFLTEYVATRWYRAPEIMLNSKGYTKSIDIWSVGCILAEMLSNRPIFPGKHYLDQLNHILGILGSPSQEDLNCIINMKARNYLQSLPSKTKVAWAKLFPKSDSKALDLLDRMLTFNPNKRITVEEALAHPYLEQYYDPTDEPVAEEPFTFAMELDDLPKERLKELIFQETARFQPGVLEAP

T1 sequence (P28482 whole entry, the tested form may be a part): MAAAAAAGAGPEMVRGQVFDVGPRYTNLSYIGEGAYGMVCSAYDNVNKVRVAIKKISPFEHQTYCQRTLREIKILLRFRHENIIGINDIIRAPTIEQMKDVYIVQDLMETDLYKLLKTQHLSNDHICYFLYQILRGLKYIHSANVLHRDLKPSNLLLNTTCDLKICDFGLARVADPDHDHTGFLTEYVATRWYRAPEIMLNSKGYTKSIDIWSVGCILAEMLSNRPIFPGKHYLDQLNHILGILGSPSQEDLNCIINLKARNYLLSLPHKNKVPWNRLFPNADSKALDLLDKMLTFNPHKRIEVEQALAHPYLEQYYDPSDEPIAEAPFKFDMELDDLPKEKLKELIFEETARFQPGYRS

binding result [1]: binds
binding result [2]: binds
B1: GST-SIX1 fusion protein (natural protein, human, UniProt Q15475 1-284, looked up)
chain: MSMLPSFGFTQEQVACVCEVLQQGGNLERLGRFLWSLPACDHLHKNESVLKAKAVVAFHRGNFRELYKILESHQFSPHNHPKLQQLWLKAHYVEAEKLRGRPLGAVGKYRVRRKFPLPRTIWDGEETSYCFKEKSRGVLREWYAHNPYPSPREKRELAEATGLTTTQVSNWFKNRRQRDRAAEAKERENTENNNSSSNKQNQLSPLEGGKPLMSSSEEEFSPPQSPDQNSVLLLQGNMGHARSSNYSLPGLTASQPSHGLQTHQHQLQDSLLGPLTSSLVDLGS
notes: Sine oculis homeobox 1 (SIX1), human; Built in pGEX-KG; source: E. coli BL21, purified (glutathione-Sepharose 4B)
